In article PMC9058472:

Target: polymerized microtubules (UniProt P68369)

Substance: GFP-α-TAT1^DC1 (α-TAT1 with Cluster 1 deleted) (from UniProt Q8K341 1-314) (domain or fragment)
- microtubule binding against WT α-TAT1: 65%
